Results from the supplement of paper PMC11908140.

B1: library; numbered along this chain (parent)
chain: MRKPRAAVGSGHRKQAASQEGRQKHAKNNSQAKPSACDGLARQPEEVVLQASVSSYHLFRDVAEVTAFRGSLLSWYDQEKRDLPWRRRAEDEMDLDRRAYAVWVSEVMLQQTQVATVINYYTGWMQKWPTLQDLASASLEEVNQLWAGLGYYSRGRRLQEGARKVVEELGGHMPRTAETLQQLLPGVGRYTAGAIASIAFGQATGVVDGNVARVLCRVRAIGADPSSTLVSQQLWGLAQQLVDPARPGDFNQAAMELGATVCTPQRPLCSQCPVESLCRARQRVEQEQLLASGSLSGSPDVEECAPNTGQCHLCLPPSEPWDQTLGVVNFPRKASRKPPREESSATCVLEQPGALGAQILLVQRPNSGLLAGLWEFPSVTWEPSEQLQRKALLQELQRWAGPLPATHLRHLGEVVHTFSHIKLTYQVYGLALEGQTPVTTVPPGARWLTQEEFHTAAVSTAMKKVFRVYQGQQPGTCMGSKRSQVSSPCSRKKPRMGQQVLDNFFRSHISTDAHSLNSAAQ

Variants of: B1
Experiment: 8OG:A repair function score (normalized; synonymous = 0, nonsense = -1) (normalized log-likelihood score); higher = more repair activity (WT-like)
Details: with 8OG:A DNA repair reporter (GFP) in HEK-293 MUTYH KO cells
Protocol: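 Saturation mutagenesis (NNN codon scan) of the MUTYH cDNA (521-aa nuclear isoform NM_001048174.1 / NP_001041639), stably expressed under doxycycline induction in HEK-293 MUTYH knockout cells. Cells were co-transfected with an 8OG:A-bearing GFP repair reporter plus mCherry and sorted 72 h later into GFP+ and GFP− bins, three replicates per tile. The Rosace log2 enrichment (GFP+ vs GFP−) was converted per tile to a normalized function score with synonymous variants centered at 0 and nonsense variants (codons 1-471) at -1; low-abundance variants were removed.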

Variant | 8OG:A repair function score
R157F | -0.0928
R157W | -0.0111
R157Q | -0.117
R157S | -0.182
R157M | -0.0764
R157H | -0.0973
R157Y | -0.068
R157K | -0.0295
R157C | -0.297
R157N | 0.023
R157G | -0.381
R157I | -0.517
R157L | -0.141
R157T | -0.216
R157V | -0.362
R157D | -0.365
R157A | -0.14
R157P | -1.11
R157E | -0.665
G161A | -0.00122
L145P | -1.26
L145S | 0.0372
L145D | 0.000565
L145I | -0.102

Variant | 8OG:A repair function score
L145M | 0.00629
L145Y | 0.0659
L145W | -0.0219
L145T | -0.001
L145K | 0.0459
L145V | -0.0541
L145C | 0.112
L145A | 0.0661
L145H | 0.0825
L145Q | 0.154
L145N | 0.0178
L145F | 0.0113
L145E | -0.0292
L145R | -0.0437
L145G | 0.0263
G148W | -1.48
G148T | -0.549
G148E | -0.792
G148C | -0.72
G148K | -0.475
G148N | -0.669
G148Q | -0.44
G148A | -0.564
G148I | -1.27

Variant | 8OG:A repair function score
G148M | -1.1
G148Y | -0.677
G148R | -0.782
G148V | -1.08
G148S | -0.286
G148D | -0.544
G148L | -1.31
G148F | -0.794
G148P | -1.1
G148H | -0.166
L158D | -1.18
L158N | -1.2
L158Y | -1.09
L158F | -0.384
L158M | -0.194
L158K | -1.19
L158I | -0.11
L158H | -0.935
L158V | -0.372
L158C | -0.573
L158W | -0.991
L158P | -0.951
L158Q | -1.31
L158S | -1.05

Variant | 8OG:A repair function score
L158T | -0.756
L158R | -1.09
L158E | -1.05
L158A | -0.675
L158G | -1.15
A147P | -0.734
A147S | 0.0618
A147G | -0.174
A147K | -0.229
A147L | -0.207
A147C | -0.226
A147W | -0.902
A147Q | 0.00492
A147N | -0.0408
A147V | -0.14
A147Y | -0.549
A147R | -0.11
A147I | -0.125
A147T | -0.154
A147F | -0.305
A147M | -0.0248
A147H | -0.241
A147E | -0.144
A147D | -0.118

Variant | 8OG:A repair function score
Q159R | 0.162
Q159N | -0.144
Q159E | -0.416
Q159S | -0.121
Q159W | 0.287
Q159C | 0.0194
Q159A | -0.0252
Q159M | 0.0724
Q159Y | 0.116
Q159H | 0.0232
Q159V | 0.0456
Q159G | -0.279
Q159L | 0.127
Q159P | -0.377
Q159D | -0.824
Q159F | 0.0628
Q159K | 0.0628
Q159I | 0.0245
Q159T | -0.0681
S153E | -0.117
S153I | -0.105
S153P | 0.0253
S153K | -0.0744
S153C | -0.074

Variant | 8OG:A repair function score
S153V | -0.00826
S153F | 0.0735
S153R | -0.265
S153M | -0.237
S153G | -0.237
S153D | -0.368
S153T | 0.158
S153N | -0.152
S153Y | -0.143
S153A | 0.0766
S153L | 0.0439
S153H | -0.0258
S153Q | -0.127
S153W | -0.198
R156S | -0.193
R156V | -0.117
R156G | -0.287
R156F | -0.3
R156H | -0.0809
R156K | 0.00226
R156I | -0.152
R156Q | -0.136
R156M | -0.207
R156A | -0.122

Variant | 8OG:A repair function score
R156Y | -0.337
R156N | -0.179
R156L | -0.142
R156T | -0.238
R156P | -0.341
R156W | -0.133
R156D | -0.477
R156C | -0.162
R156E | -0.319
G155H | -0.388
G155K | -0.654
G155P | -0.0172
G155C | -0.117
G155A | 0.037
G155Y | -0.667
G155M | -0.629
G155I | -0.489
G155S | -0.0824
G155D | -0.75
G155V | -0.116
G155F | -0.526
G155L | -0.574
G155N | -0.213
G155T | -0.218

Variant | 8OG:A repair function score
G155E | -0.691
G155W | -0.265
G155R | -0.543
G155Q | -0.682
R154M | -1.16
R154V | -1.04
R154E | -1.23
R154C | -1.08
R154D | -1.11
R154S | -1.03
R154P | -1.06
R154I | -0.971
R154T | -1.16
R154K | -0.609
R154W | -1.03
R154Q | -1.06
R154G | -1.12
R154H | -0.851
R154N | -0.885
R154F | -1.05
R154Y | -1.21
R154A | -0.88
R154L | -1.06
L149D | -1.19

Variant | 8OG:A repair function score
L149G | -0.743
L149C | -0.585
L149P | -0.979
L149H | -1.82
L149R | -0.729
L149W | -1.46
L149K | -1.17
L149F | -0.43
L149N | -0.783
L149S | -0.335
L149Y | -0.657
L149V | -0.906
L149E | -1.24
L149T | -0.81
L149M | -0.664
L149Q | -1.06
L149A | -0.323
L149I | -0.462
Q144S | 0.0476
Q144N | -0.299
Q144R | 0.0872
Q144G | -0.106
Q144C | -0.0295
Q144Y | -0.286

Variant | 8OG:A repair function score
Q144A | -0.134
Q144H | -0.0216
Q144L | -0.000148
Q144W | -0.282
Q144T | -0.0237
Q144K | -7.85e-05
Q144E | -0.0907
Q144P | -0.282
Q144V | -0.0203
Q144M | 0.0906
Q144F | -0.198
Q144D | -0.5
Q144I | 0.051
Y151S | -1.29
Y151I | -0.244
Y151N | -1.33
Y151F | -0.064
Y151Q | -0.672
Y151G | -1.03
Y151L | -0.0762
Y151H | -0.509
Y151E | -1.21
Y151C | -0.944
Y151K | -0.808

Variant | 8OG:A repair function score
Y151W | -0.534
Y151A | -0.816
Y151M | -0.45
Y151R | -0.389
Y151P | -1.25
Y151V | -0.583
Y151D | -1
Y151T | -0.587
E160W | 0.0263
E160A | 0.0427
E160I | -0.0174
E160G | -0.116
E160T | -0.0143
E160R | -0.136
E160N | -0.0629
E160V | -0.00913
E160F | -0.0745
E160M | 0.0471
E160S | -0.0339
E160Q | 0.018
E160D | -0.104
E160C | -0.0918
E160L | -0.0898
E160K | -0.0797

Variant | 8OG:A repair function score
E160Y | -0.063
E160H | -0.264
E160P | -0.814
G150K | -1.27
G150V | -1.22
G150S | -1.26
G150P | -1.54
G150Y | -0.803
G150I | -1.78
G150A | -1.42
G150E | -1.13
G150Q | -1.58
G150L | -1.18
G150T | -1.35
G150D | -1.38
G150H | -1.12
G150F | -1.66
G150R | -1.3
G150M | -1.44
G150C | -0.982
G150W | -1.09
G150N | -1.15
N143T | -0.286
N143W | -0.253

Variant | 8OG:A repair function score
N143S | -0.133
N143P | -0.4
N143Y | 0.0152
N143L | -0.0917
N143M | 0.113
N143Q | -0.222
N143V | -0.199
N143R | -0.181
Y152S | -1.19
Y152K | -1.07
Y152F | -0.371
Y152I | -0.496
Y152P | -1.28
Y152R | -0.956
Y152D | -1.08
Y152M | -0.3
Y152Q | -0.592
Y152H | -0.695
Y152T | -0.854
Y152E | -1.16
Y152A | -0.881
Y152W | -0.762
Y152N | -0.779
Y152C | -0.782

Variant | 8OG:A repair function score
Y152V | -0.573
Y152G | -0.713
Y152L | -0.707
W146K | -0.739
W146C | -0.255
W146N | -0.671
W146M | -0.182
W146E | -1.03
W146L | -0.263
W146R | -1.28
W146A | -0.448
W146F | -0.152
W146D | -1.2
W146I | -0.138
W146T | -0.294
W146S | -0.39
W146Y | -0.532
W146P | -1.14
W146H | -0.738
W146G | -0.399
W146V | -0.296
W146Q | -0.345
